Data from PMC2708935.
Values joined by “and” are separate entries in the source; they are usually repeats but may differ in a detail not shown here. Equal entries are not always repeated. Where two headings read alike, the source gives them in different places.

Columns and labels:
[1] = molecular target: receptor-associated protein (RAP), GST-free (UniProt P30533); experiment: native gel or EMSA
[2] = molecular target: receptor-associated protein (RAP), GST-free (UniProt P30533); experiment: SEC
[3] = molecular target: receptor-associated protein (RAP), GST-free (UniProt P30533); experiment: AUC
[4] = molecular target: receptor-associated protein (RAP), GST-free (UniProt P30533); experiment: other fluorescence titration
[5] = molecular target: CR56, LRP fragment containing domains CR5 and CR6 (UniProt Q07954); experiment: ITC
[6] = molecular target: CR34, LRP fragment containing domains CR3 and CR4; experiment: other fluorescence titration
[7] = molecular target: CR45, LRP fragment containing domains CR4 and CR5; experiment: other fluorescence titration
[8] = molecular target: CR456, LRP fragment containing domains CR4, CR5 and CR6; experiment: other fluorescence titration
[9] = molecular target: CR56, LRP fragment containing domains CR5 and CR6 (UniProt Q07954); experiment: other fluorescence titration
[10] = molecular target: CR567, LRP fragment containing domains CR5, CR6 and CR7; experiment: other fluorescence titration
[11] = molecular target: CR678, LRP fragment containing domains CR6, CR7 and CR8; experiment: other fluorescence titration
[12] = molecular target: CR78, LRP fragment containing domains CR7 and CR8; experiment: other fluorescence titration
[13] = molecular target: CR89, LRP fragment containing domains CR8 and CR9; experiment: other fluorescence titration
[14] = molecular target: CR345, LRP fragment containing domains CR3, CR4 and CR5; experiment: other fluorescence titration
[15] = molecular target: receptor-associated protein (RAP), GST-free (UniProt P30533); experiment: ITC
RAP domain 1 (D1) [16] = experiment: other fluorescence titration
RAP domain 2 (D2) [17] = molecular target: RAP domain 2 (D2) (UniProt P30533); experiment: other fluorescence titration
RAP domain 3 (D3) [18] = experiment: other fluorescence titration
RAP domain 1 (D1) [19] = experiment: other fluorescence titration; remark: listed apart in the source
RAP domain 2 (D2) [20] = molecular target: RAP domain 2 (D2) (UniProt P30533); experiment: other fluorescence titration; remark: listed apart in the source
RAP domain 3 (D3) [21] = experiment: other fluorescence titration; remark: listed apart in the source

Chain of CR56, LRP fragment containing domains CR5 and CR6 (from UniProt Q07954 932-1013) (domain or fragment) (Q07954 932-1013): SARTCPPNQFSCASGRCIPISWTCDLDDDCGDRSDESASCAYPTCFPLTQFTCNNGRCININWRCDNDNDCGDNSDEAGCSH
Chain of CR56, LRP fragment containing domains CR5 and CR6 (UniProt Q07954) (Q07954 932-1013): as above
Chain of CR567, LRP fragment containing domains CR5, CR6 and CR7 (Q07954 20-4544): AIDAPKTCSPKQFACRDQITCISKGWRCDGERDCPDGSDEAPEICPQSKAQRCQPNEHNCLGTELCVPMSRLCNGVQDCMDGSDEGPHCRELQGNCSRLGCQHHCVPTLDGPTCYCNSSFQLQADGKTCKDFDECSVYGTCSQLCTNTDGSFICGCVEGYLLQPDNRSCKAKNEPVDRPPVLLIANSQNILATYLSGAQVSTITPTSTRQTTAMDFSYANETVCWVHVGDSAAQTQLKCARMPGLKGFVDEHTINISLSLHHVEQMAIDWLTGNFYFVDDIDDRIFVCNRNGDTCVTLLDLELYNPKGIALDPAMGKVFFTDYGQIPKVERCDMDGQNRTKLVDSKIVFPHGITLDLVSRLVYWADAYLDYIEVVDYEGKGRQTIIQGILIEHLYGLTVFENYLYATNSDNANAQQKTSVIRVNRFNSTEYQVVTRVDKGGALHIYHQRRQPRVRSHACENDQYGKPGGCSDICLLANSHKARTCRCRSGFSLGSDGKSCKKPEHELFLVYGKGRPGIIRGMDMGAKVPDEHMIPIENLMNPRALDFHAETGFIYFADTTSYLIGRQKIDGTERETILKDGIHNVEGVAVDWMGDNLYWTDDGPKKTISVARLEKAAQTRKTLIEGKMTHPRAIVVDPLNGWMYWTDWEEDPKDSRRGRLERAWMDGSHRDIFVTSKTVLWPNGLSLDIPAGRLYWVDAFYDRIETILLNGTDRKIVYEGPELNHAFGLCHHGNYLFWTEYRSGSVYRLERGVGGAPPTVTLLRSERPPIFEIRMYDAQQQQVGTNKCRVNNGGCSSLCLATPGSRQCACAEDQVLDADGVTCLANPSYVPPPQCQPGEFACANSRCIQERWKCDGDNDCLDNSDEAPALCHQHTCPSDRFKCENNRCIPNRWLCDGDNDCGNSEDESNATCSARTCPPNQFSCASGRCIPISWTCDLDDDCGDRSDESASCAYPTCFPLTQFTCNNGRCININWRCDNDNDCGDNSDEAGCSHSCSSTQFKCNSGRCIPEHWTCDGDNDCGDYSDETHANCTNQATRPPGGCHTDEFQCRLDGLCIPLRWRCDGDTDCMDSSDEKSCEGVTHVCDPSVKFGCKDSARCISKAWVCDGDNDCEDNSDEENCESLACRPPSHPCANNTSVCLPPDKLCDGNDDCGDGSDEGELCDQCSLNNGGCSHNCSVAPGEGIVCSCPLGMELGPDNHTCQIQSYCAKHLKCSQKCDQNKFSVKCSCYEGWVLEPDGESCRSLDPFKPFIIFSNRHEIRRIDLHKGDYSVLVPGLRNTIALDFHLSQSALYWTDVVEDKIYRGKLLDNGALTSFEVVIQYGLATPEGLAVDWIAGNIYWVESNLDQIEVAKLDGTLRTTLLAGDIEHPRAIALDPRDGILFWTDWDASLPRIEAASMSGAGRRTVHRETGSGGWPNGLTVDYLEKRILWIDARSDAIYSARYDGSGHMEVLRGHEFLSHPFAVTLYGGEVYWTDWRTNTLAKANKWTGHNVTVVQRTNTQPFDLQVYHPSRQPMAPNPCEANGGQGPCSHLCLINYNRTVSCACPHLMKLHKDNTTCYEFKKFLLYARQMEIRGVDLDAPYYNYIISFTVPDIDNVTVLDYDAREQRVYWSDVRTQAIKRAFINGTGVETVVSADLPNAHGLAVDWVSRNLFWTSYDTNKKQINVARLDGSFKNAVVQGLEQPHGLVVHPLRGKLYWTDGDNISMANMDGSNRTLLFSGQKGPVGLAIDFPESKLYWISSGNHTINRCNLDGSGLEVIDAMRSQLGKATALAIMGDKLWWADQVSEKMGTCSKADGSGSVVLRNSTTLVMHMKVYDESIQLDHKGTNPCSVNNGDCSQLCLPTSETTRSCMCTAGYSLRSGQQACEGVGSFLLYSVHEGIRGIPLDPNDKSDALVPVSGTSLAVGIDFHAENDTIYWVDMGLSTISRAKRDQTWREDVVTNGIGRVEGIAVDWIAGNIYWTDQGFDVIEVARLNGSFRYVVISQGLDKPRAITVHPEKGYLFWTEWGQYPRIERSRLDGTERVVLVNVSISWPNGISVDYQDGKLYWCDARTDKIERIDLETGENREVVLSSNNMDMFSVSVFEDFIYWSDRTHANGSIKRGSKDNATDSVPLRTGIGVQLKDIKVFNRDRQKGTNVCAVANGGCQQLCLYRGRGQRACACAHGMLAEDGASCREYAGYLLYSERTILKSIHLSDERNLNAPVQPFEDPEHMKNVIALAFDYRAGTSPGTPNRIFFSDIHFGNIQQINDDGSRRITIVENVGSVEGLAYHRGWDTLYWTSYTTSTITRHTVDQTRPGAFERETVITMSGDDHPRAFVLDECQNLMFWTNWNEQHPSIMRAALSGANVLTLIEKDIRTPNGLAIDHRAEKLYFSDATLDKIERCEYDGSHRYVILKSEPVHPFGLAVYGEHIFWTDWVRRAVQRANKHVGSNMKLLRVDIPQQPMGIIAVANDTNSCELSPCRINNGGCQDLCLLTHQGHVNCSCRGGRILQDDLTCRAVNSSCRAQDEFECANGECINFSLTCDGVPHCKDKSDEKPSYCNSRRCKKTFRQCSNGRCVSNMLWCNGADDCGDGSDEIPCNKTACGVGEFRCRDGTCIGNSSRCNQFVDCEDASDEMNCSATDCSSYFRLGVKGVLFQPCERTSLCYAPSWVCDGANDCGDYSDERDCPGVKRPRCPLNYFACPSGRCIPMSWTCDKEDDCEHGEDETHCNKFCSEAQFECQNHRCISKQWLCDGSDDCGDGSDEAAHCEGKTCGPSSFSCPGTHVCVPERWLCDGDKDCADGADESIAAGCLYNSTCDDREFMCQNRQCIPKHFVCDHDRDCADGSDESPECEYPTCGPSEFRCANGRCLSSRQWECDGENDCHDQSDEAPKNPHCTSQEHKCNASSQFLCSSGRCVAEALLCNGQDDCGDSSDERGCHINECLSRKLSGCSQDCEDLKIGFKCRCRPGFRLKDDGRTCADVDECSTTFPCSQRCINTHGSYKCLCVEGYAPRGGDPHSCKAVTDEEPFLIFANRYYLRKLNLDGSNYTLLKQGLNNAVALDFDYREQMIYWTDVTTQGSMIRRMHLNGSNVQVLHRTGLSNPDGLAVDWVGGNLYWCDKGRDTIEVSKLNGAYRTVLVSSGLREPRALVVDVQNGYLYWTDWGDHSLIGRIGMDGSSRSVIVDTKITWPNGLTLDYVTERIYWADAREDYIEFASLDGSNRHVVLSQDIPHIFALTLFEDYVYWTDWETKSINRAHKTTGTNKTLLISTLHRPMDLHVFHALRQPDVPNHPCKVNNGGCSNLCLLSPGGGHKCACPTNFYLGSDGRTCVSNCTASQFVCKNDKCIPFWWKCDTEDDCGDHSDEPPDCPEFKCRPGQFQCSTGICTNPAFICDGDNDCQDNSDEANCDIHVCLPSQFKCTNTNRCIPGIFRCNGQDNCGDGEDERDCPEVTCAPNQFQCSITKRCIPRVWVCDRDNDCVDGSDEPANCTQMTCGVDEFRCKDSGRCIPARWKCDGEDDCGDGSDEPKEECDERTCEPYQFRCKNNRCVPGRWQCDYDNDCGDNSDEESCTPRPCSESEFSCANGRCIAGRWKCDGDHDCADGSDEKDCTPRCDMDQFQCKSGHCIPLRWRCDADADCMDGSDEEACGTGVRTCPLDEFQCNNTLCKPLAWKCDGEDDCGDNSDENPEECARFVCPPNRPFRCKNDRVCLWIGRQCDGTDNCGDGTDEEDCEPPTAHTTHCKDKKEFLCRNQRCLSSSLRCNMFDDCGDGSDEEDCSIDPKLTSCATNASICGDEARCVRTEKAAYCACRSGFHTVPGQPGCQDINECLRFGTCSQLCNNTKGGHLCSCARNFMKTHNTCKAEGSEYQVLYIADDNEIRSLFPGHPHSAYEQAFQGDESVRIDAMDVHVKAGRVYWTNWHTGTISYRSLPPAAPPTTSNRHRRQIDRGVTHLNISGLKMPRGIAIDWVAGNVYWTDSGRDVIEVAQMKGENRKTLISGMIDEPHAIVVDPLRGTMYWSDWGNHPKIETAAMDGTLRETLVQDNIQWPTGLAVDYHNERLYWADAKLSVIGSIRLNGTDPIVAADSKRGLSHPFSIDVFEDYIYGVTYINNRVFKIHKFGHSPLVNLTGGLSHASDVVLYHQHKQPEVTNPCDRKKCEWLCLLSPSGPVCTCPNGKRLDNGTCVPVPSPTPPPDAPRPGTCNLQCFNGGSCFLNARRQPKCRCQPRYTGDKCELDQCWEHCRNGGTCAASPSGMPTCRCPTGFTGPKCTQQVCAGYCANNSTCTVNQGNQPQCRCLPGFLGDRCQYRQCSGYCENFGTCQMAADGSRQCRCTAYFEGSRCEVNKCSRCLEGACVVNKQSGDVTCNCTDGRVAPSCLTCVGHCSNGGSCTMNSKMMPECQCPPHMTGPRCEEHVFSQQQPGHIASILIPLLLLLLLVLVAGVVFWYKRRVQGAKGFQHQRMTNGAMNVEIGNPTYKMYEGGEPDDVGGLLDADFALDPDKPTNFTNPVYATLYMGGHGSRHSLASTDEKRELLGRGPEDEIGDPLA
Chain of CR45, LRP fragment containing domains CR4 and CR5 (Q07954 20-4544): as above
Chain of CR678, LRP fragment containing domains CR6, CR7 and CR8 (Q07954 20-4544): as above
Chain of CR34, LRP fragment containing domains CR3 and CR4 (Q07954 20-4544): as above
Chain of CR345, LRP fragment containing domains CR3, CR4 and CR5 (domain or fragment) (Q07954 20-4544): as above
Chain of CR78, LRP fragment containing domains CR7 and CR8 (Q07954 20-4544): as above
Chain of CR456, LRP fragment containing domains CR4, CR5 and CR6 (domain or fragment) (Q07954 20-4544): as above
Chain of CR89, LRP fragment containing domains CR8 and CR9 (Q07954 20-4544): as above
Chain of CR345, LRP fragment containing domains CR3, CR4 and CR5 (Q07954 20-4544): as above
Chain of CR456, LRP fragment containing domains CR4, CR5 and CR6 (Q07954 20-4544): as above

Substance | stoichiometry N (equivalents of CR per RAP) [1] | Kd1 (site 1, fixed in the fit) [4] | Kd2 (site 2) [4] | Kd [5] | dH [5] | Kd [6] | Kd [7] | Kd [9] | Kd [10] | Kd [11] | Kd [12] | Kd [13] | Kd [14] | other results
CR345, LRP fragment containing domains CR3, CR4 and CR5 (domain or fragment) | 2 | 20 nM | 42 nM |  |  |  |  |  |  |  |  |  |  | stoichiometry N (CR345 per RAP) [2]: 1.8; stoichiometry N (CR345 per RAP) [3]: 2 and 2.3
CR456, LRP fragment containing domains CR4, CR5 and CR6 (domain or fragment) | 2 | 10 nM | 36 nM |  |  |  |  |  |  |  |  |  |  | 
RAP domain 3 (D3) (domain or fragment) |  |  |  | 77 nM | -17.1 kcal/mol | 3.5 nM | 17 nM | 37 nM | 5.3 nM | 26 nM | 55 nM | 20 nM |  | Kd [8]: 8 nM
RAP domain 2 (D2) (from UniProt P30533 35-357) (domain or fragment) |  |  |  | 270 nM | -8.8 kcal/mol | 19 nM | 30 nM | 54 nM | 18 nM | 44 nM | 116 nM | 42 nM | 23 nM | 
CR56, LRP fragment containing domains CR5 and CR6 (from UniProt Q07954 932-1013) (domain or fragment) | 2 | 20 nM | 56 nM |  |  |  |  |  |  |  |  |  |  | dH (overall, two equivalents of CR56) [15]: -39.2 kcal/mol; stoichiometry N [15]: 2 CR56 per RAP; stoichiometry N [2]: 2.1 CR56 per RAP; Kd (RAP domain 1 (D1) [16]): 26 nM; Kd (RAP domain 2 (D2) [17]): 46 nM; Kd (RAP domain 3 (D3) [18]): 41 nM; stoichiometry N [3]: 2 CR56 per RAP and 2.6 CR56 per RAP; Kd (RAP domain 1 (D1) [19]): 29 nM; Kd (RAP domain 2 (D2) [20]): 22 nM; Kd (RAP domain 3 (D3) [21]): 7 nM
RAP domain 1 (D1) (domain or fragment) |  |  |  | 62 nM | -18.4 kcal/mol | 38 nM | 24 nM | 20 nM | 15 nM | 859 nM | 927 nM | 35 nM | 23 nM | 
